# Tests used:
# [1] = target: Angiotensin-converting enzyme 2 (ACE2) ectodomain, Fc-tagged (human) (UniProt Q9BYF1); experiment: latex nanoparticle-enhanced turbidimetry
# [2] = target: Angiotensin-converting enzyme 2 (ACE2) ectodomain, Fc-tagged (human) (UniProt Q9BYF1); experiment: BLI
# Sequence of Angiotensin-converting enzyme 2 (ACE2) ectodomain, Fc-tagged (human) (Q9BYF1 18-740): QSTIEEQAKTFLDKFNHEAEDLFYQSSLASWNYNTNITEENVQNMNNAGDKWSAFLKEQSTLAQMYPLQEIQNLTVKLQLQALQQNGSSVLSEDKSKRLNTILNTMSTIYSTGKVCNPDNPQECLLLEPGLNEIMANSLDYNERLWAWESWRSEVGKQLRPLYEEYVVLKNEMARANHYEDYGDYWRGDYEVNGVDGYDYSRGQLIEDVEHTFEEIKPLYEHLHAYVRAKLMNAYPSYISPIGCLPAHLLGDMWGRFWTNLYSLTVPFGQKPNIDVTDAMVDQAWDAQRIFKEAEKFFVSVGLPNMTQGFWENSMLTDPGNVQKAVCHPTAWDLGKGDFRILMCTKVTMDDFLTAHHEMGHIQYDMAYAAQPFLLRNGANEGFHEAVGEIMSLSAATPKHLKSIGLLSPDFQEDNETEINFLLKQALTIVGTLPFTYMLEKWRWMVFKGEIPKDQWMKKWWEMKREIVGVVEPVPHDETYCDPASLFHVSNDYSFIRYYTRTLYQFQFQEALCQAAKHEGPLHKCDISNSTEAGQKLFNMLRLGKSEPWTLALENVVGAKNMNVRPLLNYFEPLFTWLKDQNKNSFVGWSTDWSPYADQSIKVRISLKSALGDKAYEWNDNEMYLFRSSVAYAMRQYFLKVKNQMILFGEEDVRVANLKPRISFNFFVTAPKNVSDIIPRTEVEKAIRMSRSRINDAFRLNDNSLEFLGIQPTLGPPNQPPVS
substance,measurement,setting,value
Human milk lactoferrin (natural protein),"apparent Kobs (inhibition of RBD-ACE2 complex formation, initial rates)",[1],6.3 µM
same,Kd,[2],27.6 µM
same,koff,[2],0.461 s⁻¹
same,kon,[2],16700 M⁻¹ s⁻¹
